The results in this text go back to US20240109972A1, “ANTIBODY AND TAXANE COMBINATION THERAPY” (Genmab A/S, priority 2020, published 2024).

Entries after “also recorded” stand apart in the source; their conditions may differ. A value given as a limit tells only on which side of the number the result lay.

Data set [1] in a line: GEN1046 Phase I dose escalation, safety and dose finding. The data set is classed as in vivo. An excerpt: The recommended phase 2 dose (RP2D) was based on a review of the available safety and dosing information and could be lower than the maximum tolerated dose (MTD).
In a further data set the test system is interferon-gamma (IFN-γ). The experiment in a line: Serum interferon-γ levels in cancer patients after GEN1046 (MSD multiplex immunoassay). The data set is classed as in vivo, human. The method, then: Serum levels of IFN-γ were measured by a Meso Scale Discovery (MSD) multiplex immune-assay (cat. no. K15209G) following the manufacturer's instructions.

Turning to “GEN1046: PD-L1×4-1BB bispecific antibody: PD-L1-547-FEAL combined with CD137-009-HC7LC2-FEAR (SEQ ID NOs: 1, 5, 21, 19; 8, 12, 22, 20)”, the Doses administered safely entry in data set [1] (1Q3W) is listed as “up to 1200 mg”. Moreover, in data set [1] (dose escalation), the “Patients with dose limiting toxicities (DLTs)” value is listed as “Six”, the “Severity of most adverse events” value is “mild to moderate” and the “Treatment-related bilirubin increases or Grade 4 transaminase elevations” value was “No treatment-related bilirubin increases or Grade 4 transaminase elevations were observed”. In data set [1] (dose escalation, 1Q3W), the “Maximum tolerated dose (MTD)” value was “not reached; also recorded: no MTD was determined”. Moreover, the “Most frequent adverse events” value in data set [1] (patients receiving GEN1046) was “transaminase elevations, followed by hyperthyroidism, fatigue, nausea, asthenia and neutrophil count decrease”. Besides, the “Dose levels with higher magnitude and consistent modulation of peripheral pharmacodynamic endpoints” value in the data set on interferon-gamma (IFN-γ) (IFNγ and proliferating Ki67+ effector memory CD8+ T cells) was at least 200 mg. In addition, the “Dose levels with maximal increases of IFN-γ” value with interferon-gamma (IFN-γ) (first treatment cycle) is 50 mg and 80 mg. Besides, the “Increase of IFN-γ levels” value in the data set with interferon-gamma (IFN-γ) (first treatment cycle, across all dose levels tested) is “more than 2 fold”.
